Measurements from article PMC7375816.

Target: Yeast Hsp90 wild-type FRET hetero-dimer (donor 61C + biotinylated acceptor 385C) (yeast | D. melanogaster)

- increase in ATPase activity of Hsp90 in the presence of 3 µM Aha1, normalised to the activity without Aha1: 17 fold
B1: cochaperone Aha1 (natural protein)
chain: MVVNNPNNWHWVDKNCIGWAKEYFKQKLVGVEAGSVKDKKYAKIKSVSSIEGDCEVNQRKGKVISLFDLKITVLIEGHVDSKDGSALPFEGSINVPEVAFDSEASSYQFDISIFKETSELSEAKPLIRSELLPKLRQIFQQFGKDLLATHGNDIQVPESQVKSNYTRGNQKSSFTEIKDSASKPKKNALPSSTSTSAPVSSTNKVPQNGSGNSTSIYLEPTFNVPSSELYETFLDKQRILAWTRSAQFFNSGPKLETKEKFELFGGNVISELVSCEKDKKLVFHWKLKDWSAPFNSTIEMTFHESQEFHETKLQVKWTGIPVGEEDRVRANFEEYYVRSIKLTFGFGAVL
